Residue numbers refer to the chain shown, from its start.
T1: AF9 YEATS domain (1-138) (human, UniProt P42568 1-138)
T1 sequence (looked up): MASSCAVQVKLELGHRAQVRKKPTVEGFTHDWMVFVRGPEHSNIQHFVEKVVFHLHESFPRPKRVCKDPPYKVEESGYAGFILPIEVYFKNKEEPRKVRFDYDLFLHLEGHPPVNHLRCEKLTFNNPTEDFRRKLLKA

T2: AF9 YEATS domain F59Y (human, UniProt P42568 1-138, F59Y)
T2 sequence (looked up): T1 sequence (looked up) with F59Y

T3: AF9-F28R YEATS domain (1-138) (human, UniProt P42568 1-138, F28R)
T3 sequence (looked up): T1 sequence (looked up) with F28R


Tests used:
AF9 YEATS domain (1-138) = molecular target: T1, AF9 YEATS domain (1-138); test: ITC
AF9 YEATS domain F59Y = molecular target: T2, AF9 YEATS domain F59Y; test: ITC
[1] = molecular target: T3, AF9-F28R YEATS domain (1-138); test: crystal structure

| Molecule | Kd (AF9 YEATS domain (1-138)) [µM] | fold reduction of affinity against WT AF9 YEATS (AF9 YEATS domain F59Y) [fold] | binding result [1] |
| --- | --- | --- | --- |
| H3K9ac peptide (ITC) | 4.6 |  |  |
| ARTKQTARKS (peptide, UniProt P68431 2-11, looked up, lactyl-lysine (L-lactylation) at K9) [H3_(1-10)K9la peptide] |  |  | binds |

Continued by falling Kd (AF9 YEATS domain (1-138)), values first:

| Kd (AF9 YEATS domain (1-138)) [µM] | fold reduction of affinity against WT AF9 YEATS (AF9 YEATS domain F59Y) [fold] | binding result [1] | Molecule |
| --- | --- | --- | --- |
| 172 |  |  | H3K18la peptide |
| 74.4 | 2 |  | ARTKQTARKS (lactyl-lysine (L-lactylation) at K9) [H3K9la peptide (ITC)] |

From doi:10.1101/2025.06.18.660498 (bioRxiv, 2025)
